In doi:10.1101/2020.08.16.253294 (bioRxiv, 2020):
Substitutions are numbered along the chain they refer to. In names and notes the source's numbering stands.

B1: extracellular domain of ZIP4 from Pteropus alecto (black fruit bat), wild type (domain or fragment)
chain: SGQGALDRVALGGLLNTLAARVHCTSGPCGKCLSVDDLLALGRPEEPGHLARLSAAAALYLSDPEGTCEDIRAGRWASRADHLLALLEGPKALAPGLSRLLQRIQAQTTGQPSAGEACVDPPQLLREAGVAGAPGSPGPVLATLLEHVGRGSCFHTLPTPQYFVDFVFQQSHGNTPNISVAELAALMQRLGVGGVTETHSDHHHQEKRVNRQGPTPLTAPNSSSDTWDTVCLSARDVMAVYGLSEQTGVTPEAWAQLSPALLQQQLSGACSPQPSHPAQNQLSQAEK
B2: pZIP4-ECD P193L variant (domain or fragment)
chain: B1 chain with P158L
B3: pZIP4-ECD A91T variant (domain or fragment)
chain: B1 chain with A56T
B4: pZIP4-ECD C64R variant (domain or fragment)
chain: B1 chain with C29R
B5: pZIP4-ECD Q299H variant (domain or fragment)
chain: B1 chain with Q264H
B6: pZIP4-ECD R87C variant (domain or fragment)
chain: B1 chain with R52C

Target: the molecule itself
Assay: SEC

Protein | stoichiometry N
B1 | 2
B2 | 2
B3 | 2
B4 | 2
B5 | 2
B6 | 2
